We go through 17 molecules from US6995244 (OHIO STATE UNIVERSITY, dated 2006).

Substitutions are numbered along the chain they refer to. In names and notes the source's numbering stands.

The term kon denotes a measure of how fast the partners come together. A high value points to fast association. For orientation: koff means a measure of how fast the partners let go of each other. As a reminder, the Kd is the constant that tells how readily two partners part at equilibrium.

Assay [1] concerns the target human prolactin receptor on transfected FDC-P1 cells (human) (UniProt P16471). Description: cell-based or functional assay.
In assay [2] the target is growth hormone receptor (FDC-P1 somatotrophic assay). Kind of assay: cell-based or functional assay.
The target in assay [3] is T1, human prolactin receptor on transfected FDC-P1 cells (human, UniProt P16471 25-622).
T1 sequence (looked up): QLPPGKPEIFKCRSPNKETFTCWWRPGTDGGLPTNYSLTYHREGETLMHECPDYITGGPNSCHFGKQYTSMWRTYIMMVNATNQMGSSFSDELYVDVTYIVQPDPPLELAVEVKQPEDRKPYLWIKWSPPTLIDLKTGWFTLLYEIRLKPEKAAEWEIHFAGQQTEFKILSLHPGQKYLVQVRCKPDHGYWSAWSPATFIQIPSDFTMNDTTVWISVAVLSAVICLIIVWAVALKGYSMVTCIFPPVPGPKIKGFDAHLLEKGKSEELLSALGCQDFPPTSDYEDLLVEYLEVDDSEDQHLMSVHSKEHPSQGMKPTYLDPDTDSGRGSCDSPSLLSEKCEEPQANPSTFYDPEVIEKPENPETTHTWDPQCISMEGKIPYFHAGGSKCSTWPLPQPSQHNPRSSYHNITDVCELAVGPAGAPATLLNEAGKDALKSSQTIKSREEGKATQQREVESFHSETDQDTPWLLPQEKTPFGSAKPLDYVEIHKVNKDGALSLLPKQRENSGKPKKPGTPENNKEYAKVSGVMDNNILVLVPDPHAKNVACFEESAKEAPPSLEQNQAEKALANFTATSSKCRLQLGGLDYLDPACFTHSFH
Kind of assay: cell-based or functional assay.

For assay [4], the target named is T2, extracellular domain of the human prolactin receptor (human, UniProt P16471 25-234).
T2 construct: extracellular domain; also called extracellular domain of the human lactogenic receptor; lactogenic receptor
T2 sequence (looked up): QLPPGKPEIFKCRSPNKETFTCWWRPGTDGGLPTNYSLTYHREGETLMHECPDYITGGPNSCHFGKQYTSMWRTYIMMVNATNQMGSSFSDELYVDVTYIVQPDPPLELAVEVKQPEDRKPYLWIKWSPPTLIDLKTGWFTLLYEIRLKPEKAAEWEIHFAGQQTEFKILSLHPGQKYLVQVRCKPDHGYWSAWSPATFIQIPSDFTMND
Description: SPR (BIACORE 3000), prolactin coupled to the chip through Cys 158, receptor ECD 50-800 nM, induced-fit model, site 2 (ka2). Here is the method:
(§1) The extracellular domain of the human lactogenic receptor was flowed across the prolactin-linked chip surface at various concentrations and the binding kinetics followed by the optical bench. Human lactogenic receptor (extracellular domain) concentrations varied between 50 nM and 800 nM. […] A single receptor model was used for G129C human prolactin, where site 2 was blocked by the chemistry employed to couple the protein to the chip surface.
(§2) Rate constants were calculated from the association and dissociation curves, respectively, with concentrations of the extracellular domain of the human lactogenic receptor (50, 80, 100, 200, 500 and 800 nM).

Assay [5] deals with T2, extracellular domain of the human …. Description: SPR (BIACORE 3000), prolactin coupled to the chip through Cys 158, receptor ECD 50-800 nM, induced-fit model, site 1 (kd1); site 1 (kd1), prolactin coupled through Cys 158. Here is the method: as §1, §2
Background: Surface plasmon resonance follows binding to a sensor surface in real time, without labels.

The target is the same in assay [6]. Description: SPR (BIACORE 3000), prolactin coupled to the chip through Cys 158, receptor ECD 50-800 nM, induced-fit model, site 1 (KD1). The protocol: as §1, §2
Assay [7] shares this target. Description: SPR (BIACORE 3000), prolactin coupled to the chip through Cys 158, receptor ECD 50-800 nM, induced-fit model, site 2 (KD2). Here is the method:
as §1, §2

Assay [8] has the same target. Kind of assay: SPR, saturating equilibrium at 100 µM receptor ECD (FIG. 10, lower panel). Here is the method:
Experiments were then performed in studies that measured the maximal binding of lactogenic receptor (the extracellular domain of the prolactin receptor prepared by recombinant DNA technology). The various prolactins were bound with high concentrations (100 μM) of extracellular domain of the human prolactin receptor.

The target is the same in assay [9]. Kind of assay: SPR (BIACORE 3000), prolactin coupled to the chip through Cys 158, receptor ECD 50-800 nM, induced-fit model, site 2 (kd2). Here is the method:
as §1, §2

For assay [10] the target is unchanged. Description: SPR (BIACORE 3000), prolactin coupled to the chip through Cys 158, receptor ECD 50-800 nM, induced-fit model, site 1 (ka1). Here is the method: as §1, §2
Assay [11] shares this target. Kind of assay: SPR (BIACORE 3000), prolactin coupled to the chip through residue 129 (site 2 blocked), receptor ECD 50-800 nM, single-site model, site 1 (KD1). Here is the method: as §1, §2
Assay [12] has the same target. Kind of assay: SPR (BIACORE 3000), prolactin coupled to the chip through residue 129 (site 2 blocked), receptor ECD 50-800 nM, single-site model, site 1 (kd1). The protocol:
as §1, §2

Assay [13] shares this target. Description: SPR (BIACORE 3000), prolactin coupled to the chip through residue 129 (site 2 blocked), receptor ECD 50-800 nM, single-site model, site 1 (ka1). Here is the method: as §1, §2

As to “wild-type recombinant human growth hormone (from UniProt P01241 27-217) (ligand)”, the ED50 (nM), FDC-P1 lactogenic assay in assay [1] is 1.76 nM. The ED50 (nM), FDC-P1 somatotrophic assay in assay [2] worked out at 0.0712 nM.
With “Y164E human growth hormone (from UniProt P01241 27-217) (ligand)”, in [2], the ED50 (nM), FDC-P1 somatotrophic assay amounted to 0.151 nM.
With “L163F human growth hormone (from UniProt P01241 27-217) (ligand)”, the ED50 (nM), FDC-P1 somatotrophic assay in [2] is 0.235 nM.
As for “F44E human growth hormone (from UniProt P01241 27-217) (ligand)”, the ED50 (nM), FDC-P1 somatotrophic assay in [2] was 0.576 nM.
“L163A human growth hormone (from UniProt P01241 27-217) (ligand)” returned an ED50 (nM), FDC-P1 somatotrophic assay in assay [2] of 0.13 nM.
In turn, “L93E human growth hormone (from UniProt P01241 27-217) (ligand)” displayed an ED50 (nM), FDC-P1 somatotrophic assay in assay [2] of 0.234 nM.
As for “Y160E human growth hormone (from UniProt P01241 27-217) (ligand)”, in [2], the ED50 (nM), FDC-P1 somatotrophic assay was 0.186 nM.

B1: L98E human prolactin (ligand)
chain: MLPICPGGAARCQVTLRDLFDRAVVLSHYIHNLSSEMFSEFDKRYTHGRGFITKAINSCHTSSLATPEDKEQAQQMNQKDFLSLIVSILRSWNEPLYHEVTEVRGMQEAPEAILSKAVEIEEQTKRLLEGMELIVSQVHPETKENEIYPVWSGLPSLQMADEESRLSAYYNLLHCLRRDSHKIDNYLKLLKCRIIHNNNC
Take B1: in assay [3], the “ED50 (nM), FDC-P1 lactogenic assay (cell proliferation, Alamar blue)” value (shortened to “ED50 (nM) … (cell proliferation, Alamar blue)”) is 63.1 nM and the “Relative fold loss of activity, FDC-P1 lactogenic assay” value (“Relative fold loss of activity” for short) worked out at 87.7 fold.

B2: L171E human prolactin (ligand)
chain: B1 chain with E99L, L172E
As to B2, in assay [3], the “ED50 (nM) … (cell proliferation, Alamar blue)” value was 5.7 nM and the “Relative fold loss of activity” value came out at 8 fold.

B3: L95E human prolactin (ligand)
chain: B1 chain with L96E, E99L
As to B3, in [3], the “ED50 (nM) … (cell proliferation, Alamar blue)” value amounted to 5.6 nM and the “Relative fold loss of activity” value was found to be 7.8 fold.

B4: H173E human prolactin (ligand)
chain: B1 chain with E99L, H174E
B4: in [3], the “ED50 (nM) … (cell proliferation, Alamar blue)” value was 1130 nM and the “Relative fold loss of activity” value amounted to 1570 fold.

B5: Y169E human prolactin (ligand)
chain: B1 chain with E99L, Y170E
B5: in assay [3], the “ED50 (nM) … (cell proliferation, Alamar blue)” value stood at 64.8 nM and the “Relative fold loss of activity” value turned out to be 90 fold.

B6: L165E human prolactin (ligand)
chain: B1 chain with E99L, L166E
Turning to B6, in [3], the “ED50 (nM) … (cell proliferation, Alamar blue)” value came out at 29.5 nM and the “Relative fold loss of activity” value is 41 fold.

B7: M158C human prolactin (ligand)
chain: B1 chain with E99L, M159C
modifications: Cys 158 disulfide-coupled through a thiol to the dextran polymer of the SPR chip surface
notes: Recombinant, expressed in E. coli
Regarding B7, the kon in [4] is 2560 M⁻¹ s⁻¹; in assay [10] it was 14300 M⁻¹ s⁻¹. Besides, the koff in assay [5] amounted to 0.00157 s⁻¹; in assay [9] it was 0.00039 s⁻¹. Also, the Kd stood at 109 nM in [6] and 153 nM in assay [7]. Besides, the “stoichiometry (receptors bound to each prolactin)” value in [8] was 2 receptors per prolactin.

B8: F50E human prolactin (ligand)
chain: B1 chain with F51E, E99L
For B8, in [3], the “ED50 (nM) … (cell proliferation, Alamar blue)” value amounted to 1 nM and the “Relative fold loss of activity” value was determined as 5 fold.

B9: G129C human prolactin (ligand)
chain: B1 chain with E99L, G130C
modifications: Cys 129 disulfide-coupled through a thiol to the dextran polymer of the SPR chip surface
notes: Recombinant, E. coli
Turning to B9, the Kd in [11] is 60.5 nM. The “stoichiometry (receptors bound to each prolactin)” value in assay [8] is about 1 receptors per prolactin. Besides, the off-rate (koff) in assay [12] turned out to be 0.00119 s⁻¹. The kon in [13] turned out to be 19600 M⁻¹ s⁻¹.

B10: ΔF50 human prolactin (ligand)
chain: MLPICPGGAARCQVTLRDLFDRAVVLSHYIHNLSSEMFSEFDKRYTHGRGITKAINSCHTSSLATPEDKEQAQQMNQKDFLSLIVSILRSWNEPLYHLVTEVRGMQEAPEAILSKAVEIEEQTKRLLEGMELIVSQVHPETKENEIYPVWSGLPSLQMADEESRLSAYYNLLHCLRRDSHKIDNYLKLLKCRIIHNNNC
As for B10, in assay [3], the “ED50 (nM) … (cell proliferation, Alamar blue)” value worked out at 0.03 nM and the “Relative fold loss of activity” value worked out at 2.7 fold.
